The text below walks through data of patent publication US8357833B2, “Corn plants and seed enhanced for asparagine and protein” (priority 2007, dated 2013).

Substrate in the data set: N[C@@H](CC(=O)O)C(=O)O
The experiment in a line: Kinetics of recombinant his-tagged, refolded maize asparagine synthetase AsnS4 (substrate titration, asparagine by HPLC). The settings on record: other: Zm AsnS4, 100 mM Hepes, pH 8.0, 10 mM MgCl2. The format is biochemical, Zea mays.

Protocol: To assay asparagine synthetase activity, desalted protein extracts (10-50 μL) were added to wells containing 100 μL assay solution (100 mM Hepes, pH 8.0, 10 mM MgCl2, 2 mM aspartate, 5 mM DTT, 10 mM ATP, 1 mM amino(oxy)acetic acid (aspartate amino transferase inhibitor), 1 mM aspartic semialdehyde (asparaginase inhibitor). To start the reaction, glutamine (final concentration of 2 mM for standard assay) was added to the solution, which was then mixed. The assay mixture was then incubated for 1 to 2 hours. The reaction was then stopped by the addition of an equal volume of 20% (w/v) trichloroacetic acid. The mixture was then filtered to remove precipitate and asparagine was measured by HPLC. Sample size was increased from 0.5 μL to 2.5 μL for HPLC, excitation wavelength was reduced from 340 nm to 235 nm, and fluorimeter gain was increased from 10 to 13.
This example describes the cloning of the nucleotide sequence for AsnS1 (SEQ ID NO: 1), AsnS2 (SEQ ID NO: 3), AsnS3 (SEQ ID NO: 5) and AsnS4 (SEQ ID NO: 50) into E. coli expression vectors, as well as the expression, purification and kinetics of the recombinant forms of the four AsnS isoforms.
These vectors are expected to produce recombinant proteins with C-terminal histidine tags.
The E. coli expression vectors described in the previous paragraph were used to transform Rosetta DE5™ E. coli cells (Novagen). […]

B1: Zea mays asparagine synthetase Zm AsnS4 (SEQ ID NO: 51, encoded by SEQ ID NO: 50) (Zea mays) (protein)
chain: MCGILAVLGCSDCSQARRARILACSRRLKHRGPDWSGLYQHEGNFLAQQRLAIVSPLSGDQPLFNEDRTVVVVANGEIYNHKNVRKQFTGAHSFSTGSDCEVIIPLYEKYGENFVDMLDGVFAFVLYDTRDRTYVAARDAIGVNPLYIGWGSDGSVWMSSEMKALNEDCVRFEIFPPGHLYSSAGGGFRRWYTPHWFQEQVPRTPYQSLVLREAFEKAVIKRLMTDVPFGVLLSGGLDSSLVASVTKRHLVETDAAEKFGTELHSFVVGLEGSPDLKAAREVADYLGTTHHEFHFTVQDGIDAIEEVIYHDETYDVTTIRASTPMFLMARKIKSLGVKMVLSGEGSDELLGGYLYFHFAPNREELHRETCRKVKALHQYDCLRANKATSAWGLEVRVPFLDKEFVDVAMGMDPEWKMYDKNLGRIEKWVLRKAFDDEEHPYLPEHILYRQKEQFSDGVGYNWIDGLKSFTEQQVTDEMMNSAAQMFPYNTPVNKEAYYYRMIFERLFPQDSARETVPWGPSIACSTPAAIEWVEQWKASNDPSGRFISSHDSAATDRTGDKLAVANGGGHGAANGTVNGNDVAVAIAV
notes: 588 aa
Take B1: the Km stood at 930 µM.
